According to patent US9951373B2, “Oplophorus-derived luciferases, novel coelenterazine substrates, and methods of use” (Promega Corporation, priority 2010, dated 2018):

Tests used:
[1] = Stability of variants expressed in HEK293 cells; type: physicochemical; details: 20 μM PBI-3939
Method: The variants 9B8 and V2 (9B8+K33N+T39T+K43R+Y68D) were also screened in HEK293 cells to determine their stability. The variants were cloned into pF4Ag and transfected into HEK293 cells (15,000 cells/well) as previously described. After transfection, the cells were lysed in assay reagent (as previously described; no PBI-3939), and luminescence measured using the assay reagent with 20 μM PBI-3939. […] This is consistent with the half-life seen for these variants in E. coli (Table 26).

[2] = Thermal stability of OgLuc variants at 60° C.; type: physicochemical; details: 60° C., assay buffer MES pH 6.0
Method: Aliquots were removed at different time-points and placed on dry ice to freeze the samples. […] Luminescence was measured on a GLOMAX® luminometer (Promega Corp.).
The thermal stability of the variants at 60° C. was examined as described above, except the assay buffer contained 100 mM MES pH 6.0 instead of HEPES.

[3] = Luminescence of 9B8 opt+K33N derived variants in E. coli; type: biochemical; details: bacterial lysates
Method: Luminescence generated from the lysates was measured using the novel PBI-3939 and native coelenterazine as substrates. The relative specificity of the variants for PBI-3939 and native coelenterazine was calculated as described previously.
A new OgLuc library was created using 9B8opt+K33N as a starting template. The random library was created using DIVERSIFY® PCR Random Mutagenesis Kit (ClonTech; Catalog #630703). Condition 5 (as listed in the user manual) was used to generate additional variants, and the average mutation rate was calculated to be 2.6 mutations per gene by compiling sequence data from 83 randomly selected clones. This PCR library was cloned into the pF4Ag-based, non-fusion vector background described previously and the sandwich background, i.e., Id-OgLuc-HT7 (described in Example 45). Variants in the pF4Ag-base non-fusion vector background are designated with (NF). Variants in the sandwich vector background are designated with (F). In order to clone the PCR product into both vectors, an amino acid, i.e., a glycine, was appended to the variant sequence in pF4Ag, generating a new position 170 in the OgLuc variant (“170G”). The 170G is present in the sandwich construct, but in this case is considered part of the linker between OgLuc and HT7. For each library, 4,400 E. coli clones were assayed as described previously with the following exceptions. […] The assay buffer contained 100 mM MES pH 6.0 instead of HEPES, and 35 mM thiourea. The assay volumes were as follows: 10 μL cells, 40 μL, lysis buffer, and 50 μL, assay buffer.
E. coli lysates containing the variants were prepared and analyzed as described previously. Luminescence generated from the lysates was measured using the novel PBI-3939 and native coelenterazine as substrates. The luminescence of the variants was normalized to the luminescence generated by 9B8 opt (Table 12). The relative specificity of the variants for PBI-3939 and native coelenterazine was calculated by dividing the luminescence of the variants using PBI-3939 as a substrate with the luminescence of the variants using native coelenterazine as a substrate (Table 12).

[4] = Stability of secreted OgLuc variants in saved media; type: physicochemical; details: secreted variant in saved media
Method: To determine if the secretion signal sequence of OgLuc facilitates its secretion, the OgLuc variants 9B8, V2 and L27V were cloned into pF4Ag containing an N-terminal OgLuc secretion signal sequence. The variants were also cloned into vectors without the secretion signal sequence. CHO or HeLa cells were then plates at 100,000 cells/well in 1 mL F12 media with 10% FBS and 1× sodium pyruvate (CHO cells) or DMEM with 10% FBS and 1× sodium pyruvate (HeLa cells) into 12-well plates and incubated overnight at 37° C., 5% CO2.
After the overnight incubation, the cells were transfected with 1 μg plasmid DNA containing 9B8, V2, or L27V with or without the secretion signal sequence using the TRANSIT®-LT1 transfection reagent (Mirus Bio) and OPTI-MEMO media (Invitrogen). The cells were again incubated overnight at 37° C., 5% CO2.
After the second overnight incubation, the media was removed and saved for analysis. […] To 10 μL of cell lysate or saved media from each sample, 50 μL assay buffer with 40 μM PBI-3939 was added, and luminescence measured as described above.
To determine the stability of the secreted variants, 150 μL aliquots of the saved media from each sample was placed at 37° C. or 50° C. The aliquots were then removed at different time points (0, 1, 2, 3, 5, 6, and 7 […]), frozen on dry ice, and kept at −20° C. until assayed. To assay for stability, the media aliquots were thawed to room temperature, and 10 μL of each aliquot was mixed with assay buffer with PBI-3939 (pH 6.0) as described above. Luminescence was measured as above, and the half-life (t50) determined (Table 34).

[5] = tested on: NIH3T3 cells; test: Luminescence of OgLuc variants expressed in NIH3T3 cells; type: cell-based; details: PBI-3939
Method: (§1) The PCR library in the pF4Ag-based non-fusion background was screened for additional variants with increased luminescence compared to 9B8 opt+K33N+170G (SEQ ID NOs: 68 and 69). Selected variants were then assayed in HEK293 and NIH3T3 cells. For each cell type, 15,000 cells were plated and grown overnight at 37° C. The next day, the cells were transfected as described in Example 25 with 10 ng pGL4.13 (Promega Corp.) as a transfection control and 100 ng of the OgLuc test DNA. The media was removed, and the cells were lysed with 100 μL of lysis buffer as described in Example 25 except the lysis buffer contained 100 mM MES pH 6.0 instead of HEPES, and luminescence measured using a GLOMAX® Luminometer.
(§2) Based on the above data, further combination variants were designed and generated (see Table 10) in the context of the pF4Ag-based non-fusion vector background without the 170G. The variants were analyzed in E. coli, HEK293 and NIH3T3 cells as described above and compared to 9B8 opt+K33N. The variants were also examined for luminescence with native coelenterazine.
(§3) The brightness of the variants expressed in HEK293 and NIH3T3 cells was measured as described previously. The luminescence of the variants was normalized to the luminescence generated by 9B8 opt (Table 27).

[6] = tested on: HEK293 cells; test: Luminescence of OgLuc variants expressed in HEK293 cells; type: cell-based, human; details: PBI-3939
Method: as §1, §2, §3

[7] = tested on: HEK293 cells; details: mole-to-mole basis, HT7 fusions
[8] = Protein (thermal) stability of OgLuc variants at 50° C.; type: physicochemical; details: bacterial lysates, native coelenterazine
Method: Lysates of E. coli containing 15C1, 9B8, 9F6, 8A3 or IV and E. coli expressing hRL (SEQ ID NO: 30 and 31) were prepared from induced cultures as described previously. Lysate samples were diluted 1:1000 with a buffer containing 10 mM HEPES pH 7.5 with 0.1% gelatin. Diluted lysate (100 μL) samples, in replicate 96-well plates, were incubated at 50° C. At different time points, plates were placed at −70° C. (minus seventy degrees Celsius). Prior to measuring the luminescence as described previously, each plate was thawed at room temperature, i.e., 22° C., for 10 min. Samples (10 μL of each thawed sample) were assayed using native coelenterazine as a substrate. Luminescence was measured immediately after addition of assay buffer for each time point plate. The half-life of the protein, which indicated protein stability, was calculated from the luminescence data for each time point using methods known in the art.

[9] = Enzyme kinetics of OgLuc variants in E. coli lysates; type: biochemical; details: PBI-3939, E. coli lysates
Method: Using methods known in the art, enzyme kinetic assays measuring luminescence were performed with the lysates of E. coli containing IV and the IV variants 15C1, 9B8, 9F6, and 9A3. […] Two fold serial dilutions of PBI-3939 in the assay buffer described previously in Example 26 were assayed with the diluted lysates. […] Variants 9B8 and 9F6 had higher Km values compared to IV while Km values for the other variants were unchanged.
Luminescence was measured on a TECAN® INFINITE® F500 luminometer.
The enzyme kinetics values were determined for the OgLuc variants as described previously, except luminescence was measured using a GLOMAX® luminometer. Three replicates were used for each variant.

B1: 9B8: IV variant with Q18L, F68Y, L72Q, M75K (SEQ ID NO: 19) (protein)
chain: MVFTLEDFVGDWRQTAGYNLDQVLEQGGLSSLFQKLGVSVTPIQKIVLSGENGLKIDIHVIIPYEGLSGYQMGQIEKIFKVVYPVDDHHFKVILHYGTLVIDGVTPNMIDYFGRPYEGIAVFDGKKITVTGTLWNGNKIIDERLINPDGSLLFRVTINGVTGWRLCERILA
Work on B1 yielded a half-life [1] of 5.2 h, a 1/2 life hours [2] of 5.1 h and a Fold over coelenterazine ([3]; luminescence with PBI-3939 divided by luminescence with native coelenterazine) of 7. For the same molecule, the “Fold over 9B8” value ([3]; luminescence with PBI-3939 normalized to 9B8 opt) was 1.0, the “½ life 37 C.” value [4] was 8 days and the “½ life 50 C.” value [4] was 3 h. For the same molecule, the “luminescence normalized to 9B8 opt, NIH3T3” value [5] was 1.0, the “luminescence normalized to 9B8 opt, HEK293” value [6] was 1.0 and the “fold brighter than Luc2” value [7] was “approximately 15 fold”. For the same molecule, the “fold brighter than hRL” value [7] was greater than 100 fold, the “½ life (hrs)” value [8] was 5.8 h and the “½ life (min)” value [8] was 346.6 min. The Km [9] was 7.7 µM and the Vmax [9] was 86,000,000 RLU/0.5 sec.
